Measured values as given in patent publication US20050227296A1, “Method for indentifying integrin antagonists” (The General Hospital Corporation, a Massachusetts …, priority 1988, published 2005).

Columns and labels:
EAC3b = EAC3b (Homo sapiens, UniProt P01024); experiment: Erythrocyte binding assay, EAC3b on immobilized protein
Method: Erythrocytes (E) coated with rabbit anti-E IgM (EA) or C3b (EAC3b) were prepared as described by Dana et al. (J. Immunol. 73:153, 1984). EAiC3b (erythrocytes coated with iC3b) were generated by treating EAC3b with purified human factors H and I, or alternatively prepared from EA using C5-deficient human serum (Sigma Chemical Co., St. Louis, Mo.). EAiC3b cells were washed and stored in isotonic veronal-buffered saline (VBS^2+), pH 7.4, containing 0.15 mM calcium-1 mM magnesium (MgCl2+CaCl2) and 1 mg/ml Soybean Trypsin Inhibitor (STI; Worthington Biochemical Co., Freehold, N.J.) at 1.5×10^8 cells/ml. […]
Immobilization of recombinant proteins and peptides: Purified recombinant A-domain was added to Immulon-2 96-well microtiter plates (Dynatech) overnight. […] Binding of the anti-CD11b mabs to the coated rA-domain was measured by ELISA and read using a plate reader (Molecular Dynamics).
Erythrocyte binding assays: Fluoresceinated EAiC3b, EAC3b or EA were resuspended to 1.5×10^8/ml in buffer A, and added […] to wells containing immobilized proteins or peptides in a total volume of 100 ml. […] Fluorescence was quantified (excitatory wavelength, 490 nm, emission wavelength, 510 nm) using a SLM 8000 fluorometer (SLM Instruments, Urbana, Ill.). […] The effect of temperature was evaluated in the presence of 1 mM MnCl2 at 37° C. and at 4° C.

[1] = test system: biotinylated NIF binding to human neutrophils; experiment: Inhibition of biotinylated NIF binding to neutrophils
Method: 100 μg of rNIF were labeled with sulfo-NHS-Biotin as described above. rNIF binding to resting or stimulated human neutrophils (pretreated with 10^−6 M f-met-leu-phe, for 15 minutes at 37° C., then washed) was measured. Increasing amounts of biotinylated rNIF in the absence or presence of 100-fold molar excess of unlabeled rNIF were incubated on ice for one hour with 1×10^6 neutrophils in VBSG^++ in a total volume of […]. Cells were then washed and incubated with phycoerythrin-coupled avidin (Sigma Chemical Co.) under similar conditions, washed again, fixed in 1% paraformaldehyde in PBS, and analyzed using FACScan (Becton Dickinson Co., Mountain View, Calif.). Mean channel fluorescence for each sample was then expressed as a function of the amount of biotinylated rNIF used. Background binding of phycoerythrin-streptavidin alone to neutrophils was subtracted (2.8 fluorescent units). Specific binding was obtained by […], and the values plotted according to Scatchard (Ann. N.Y. Acad. Sci. 51:660, 1949). To determine the effect of unlabeled fluid-phase-r11bA or GST on rNIF binding to neutrophils, each was preincubated at varying concentrations with biotinylated rNIF (20 ng/ml, final concentration) for 15 minutes on ice before addition of the mixture to neutrophils. The effect of mAbs on biotinylated NIF binding to neutrophils was assessed by preincubating the neutrophils with 100 μg/ml of each mAb at 4° C. for 15 minutes before addition of biotinylated NIF (20 ng/ml). The incubation then continued for one hour, followed by processing of cells for FACS analysis as described below.

[2] = target: T1, EAiC3b (erythrocytes coated with iC3b) (Homo sapiens, UniProt P01024); experiment: Erythrocyte binding assay, EAiC3b on immobilized proteins or peptides
T1 construct: EAiC3b (erythrocytes coated with iC3b) were generated by treating EAC3b with purified human factors H and I; tissue Sigma Chemical Co. (C5-deficient human serum); host or cells: human serum C3 deposited on IgM-coated erythrocytes
T1 sequence (P01024 749-1303 limits assumed): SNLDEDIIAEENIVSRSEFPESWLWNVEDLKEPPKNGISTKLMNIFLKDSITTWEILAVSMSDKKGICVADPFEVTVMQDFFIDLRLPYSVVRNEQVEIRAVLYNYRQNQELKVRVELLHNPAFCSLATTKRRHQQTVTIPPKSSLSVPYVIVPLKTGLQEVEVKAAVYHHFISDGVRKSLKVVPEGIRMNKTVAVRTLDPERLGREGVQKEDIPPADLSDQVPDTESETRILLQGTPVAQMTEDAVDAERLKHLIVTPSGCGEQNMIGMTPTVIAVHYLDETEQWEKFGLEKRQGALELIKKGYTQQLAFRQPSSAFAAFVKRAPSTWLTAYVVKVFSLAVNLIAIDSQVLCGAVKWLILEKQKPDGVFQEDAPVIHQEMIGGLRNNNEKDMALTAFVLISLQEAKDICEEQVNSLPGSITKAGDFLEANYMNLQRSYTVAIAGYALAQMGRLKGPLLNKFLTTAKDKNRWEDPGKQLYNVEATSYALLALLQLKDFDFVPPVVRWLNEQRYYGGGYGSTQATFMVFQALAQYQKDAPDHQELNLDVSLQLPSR
T1 sequence (P01024 23-667 partner limits assumed): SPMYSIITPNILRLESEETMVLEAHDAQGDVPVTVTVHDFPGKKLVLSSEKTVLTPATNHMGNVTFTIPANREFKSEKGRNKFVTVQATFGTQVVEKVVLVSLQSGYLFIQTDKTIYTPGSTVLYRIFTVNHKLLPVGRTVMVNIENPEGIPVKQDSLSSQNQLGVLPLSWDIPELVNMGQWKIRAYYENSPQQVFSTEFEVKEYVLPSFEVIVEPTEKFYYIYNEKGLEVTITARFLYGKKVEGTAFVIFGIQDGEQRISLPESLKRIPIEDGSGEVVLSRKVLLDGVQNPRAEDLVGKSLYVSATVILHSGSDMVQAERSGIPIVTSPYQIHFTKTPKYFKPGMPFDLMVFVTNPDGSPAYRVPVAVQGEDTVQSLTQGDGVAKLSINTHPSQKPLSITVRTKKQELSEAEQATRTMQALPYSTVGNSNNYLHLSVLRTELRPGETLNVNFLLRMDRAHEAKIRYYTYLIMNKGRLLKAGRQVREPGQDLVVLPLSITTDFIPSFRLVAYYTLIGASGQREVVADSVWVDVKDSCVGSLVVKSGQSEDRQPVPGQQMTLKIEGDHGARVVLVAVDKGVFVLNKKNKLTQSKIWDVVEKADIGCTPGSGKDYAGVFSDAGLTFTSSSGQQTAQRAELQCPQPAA
T1 sequence (P01024 1321-1663 partner limits assumed): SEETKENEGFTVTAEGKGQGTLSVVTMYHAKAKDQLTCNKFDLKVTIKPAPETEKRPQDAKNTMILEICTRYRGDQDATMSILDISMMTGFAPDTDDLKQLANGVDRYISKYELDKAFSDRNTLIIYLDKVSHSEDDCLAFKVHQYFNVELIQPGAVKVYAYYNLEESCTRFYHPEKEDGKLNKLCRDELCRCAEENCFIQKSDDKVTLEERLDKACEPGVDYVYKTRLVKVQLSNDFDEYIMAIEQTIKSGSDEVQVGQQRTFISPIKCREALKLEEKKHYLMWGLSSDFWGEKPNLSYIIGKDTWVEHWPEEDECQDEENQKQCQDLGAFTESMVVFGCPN
Method: Erythrocytes (E) coated with rabbit anti-E IgM (EA) or C3b (EAC3b) were prepared as described by Dana et al. (J. Immunol. 73:153, 1984). EAiC3b (erythrocytes coated with iC3b) were generated by treating EAC3b with purified human factors H and I, or alternatively prepared from EA using C5-deficient human serum (Sigma Chemical Co., St. Louis, Mo.). EAiC3b cells were washed and stored in isotonic veronal-buffered saline (VBS^2+), pH 7.4, containing 0.15 mM calcium-1 mM magnesium (MgCl2+CaCl2) and 1 mg/ml Soybean Trypsin Inhibitor (STI; Worthington Biochemical Co., Freehold, N.J.) at 1.5×10^8 cells/ml. EA, EAC3b or EAiC3b were labeled with 5-(and-6)-carboxy fluorescein (Molecular Probes, Eugene, Oreg.) as described by Michishita et al. (Cell 72:857, 1993).
Immobilization of recombinant proteins and peptides: Purified recombinant A-domain was added to Immulon-2 96-well microtiter plates (Dynatech) overnight. Wells were then washed once with phosphate-buffered-saline, pH 7.4 without metals, and blocked with 1% BSA at room temperature (RT) for one hour, followed by two washings with buffer A (composed of 60% GVBS:VBS^2+ mixed in a 1:3 ratio; Arnaout et al., in Complement Receptor Type 3 at 602-615, Academic Press, FL) containing 1 mM MnCl2 or MgCl2+CaCl2. All the peptides were stocked at 1 mg/ml in water and similarly adsorbed to Immulon-2 96-well plates. Binding of the anti-CD11b mabs to the coated rA-domain was measured by ELISA and read using a plate reader (Molecular Dynamics).
Erythrocyte binding assays: Fluoresceinated EAiC3b, EAC3b or EA were resuspended to 1.5×10^8/ml in buffer A, and added […] to wells containing immobilized proteins or peptides in a total volume of […]. The plates were then briefly centrifuged to settle the erythrocytes, and allowed to incubate at 37° C. for 15 minutes in a humidified incubator with 5% CO2. For the inhibition studies, E were preincubated with each recombinant protein or pure peptide in the presence of 2% BSA for 5 minutes at RT and added to wells coated with immobilized protein or peptide without washing, unless otherwise indicated. At the end of the binding reactions, wells were washed, examined briefly by light microscopy then solubilized with 1% SDS-0.2 N NaOH. Fluorescence was quantified (excitatory wavelength, 490 nm, emission wavelength, 510 nm) using a SLM 8000 fluorometer (SLM Instruments, Urbana, Ill.). In experiments where the effects of individual divalent cations were measured, Ca^2+ and Mg^2+ were replaced with metal-free buffers or with buffers containing each cation at […], unless otherwise indicated. The effect of temperature was evaluated in the presence of 1 mM MnCl2 at 37° C. and at 4° C.

gelatin = experiment: A domain binding to gelatin
[3] = target: CR3 (CD11b/CD18) expressed by normal human neutrophils (Homo sapiens, UniProt P11215); experiment: EAiC3b binding to adherent neutrophils (CR3); format: cell-based
Method: Purification and adherence of human neutrophils: Neutrophils were purified as described by Boyum et al. (Scand. J. Clin. Lab. Med. 97(suppl.):77, 1968), resuspended in divalent-cation-free Tris-HCl-saline buffer, pH 7.4 at 5×10^7/ml and kept on ice until used. Neutrophils (2×10^5 cells/well) were allowed to adhere to 96-well plates in Iscov's Modified Medium for one hour at 37° C., in a humidified incubator with 5% CO2. The wells were then washed, and […] of fluoresceinated EAiC3b or EA (at 1.5×10^8/ml) were added in the presence of 3% BSA, in a total volume of […], followed by 15 min incubation at 37° C. with 5% CO2. Wells were then washed and fluorescence quantified as described above.
The ability of A7 to inhibit EAiC3b binding to CR3 (CD11b/CD18) expressed by normal human neutrophils was measured under conditions similar to those used in assessing EAiC3b binding to rA-domain. EAiC3b binding to neutrophils is primarily mediated by CR3, but can also occur in vitro through complement receptor type 1 (CR1). The effect of A7 on EAiC3b binding was tested in nearly isotonic conditions and in the presence of blocking concentrations of a polyclonal anti-CR1 antibody (Ross et al., J. Exp. Med. 158:334, 1983). […] These findings indicate that A7 is the major site in CR3 responsible for its interaction with iC3b.

Sequence of EAC3b (P01024 749-1663 limits assumed): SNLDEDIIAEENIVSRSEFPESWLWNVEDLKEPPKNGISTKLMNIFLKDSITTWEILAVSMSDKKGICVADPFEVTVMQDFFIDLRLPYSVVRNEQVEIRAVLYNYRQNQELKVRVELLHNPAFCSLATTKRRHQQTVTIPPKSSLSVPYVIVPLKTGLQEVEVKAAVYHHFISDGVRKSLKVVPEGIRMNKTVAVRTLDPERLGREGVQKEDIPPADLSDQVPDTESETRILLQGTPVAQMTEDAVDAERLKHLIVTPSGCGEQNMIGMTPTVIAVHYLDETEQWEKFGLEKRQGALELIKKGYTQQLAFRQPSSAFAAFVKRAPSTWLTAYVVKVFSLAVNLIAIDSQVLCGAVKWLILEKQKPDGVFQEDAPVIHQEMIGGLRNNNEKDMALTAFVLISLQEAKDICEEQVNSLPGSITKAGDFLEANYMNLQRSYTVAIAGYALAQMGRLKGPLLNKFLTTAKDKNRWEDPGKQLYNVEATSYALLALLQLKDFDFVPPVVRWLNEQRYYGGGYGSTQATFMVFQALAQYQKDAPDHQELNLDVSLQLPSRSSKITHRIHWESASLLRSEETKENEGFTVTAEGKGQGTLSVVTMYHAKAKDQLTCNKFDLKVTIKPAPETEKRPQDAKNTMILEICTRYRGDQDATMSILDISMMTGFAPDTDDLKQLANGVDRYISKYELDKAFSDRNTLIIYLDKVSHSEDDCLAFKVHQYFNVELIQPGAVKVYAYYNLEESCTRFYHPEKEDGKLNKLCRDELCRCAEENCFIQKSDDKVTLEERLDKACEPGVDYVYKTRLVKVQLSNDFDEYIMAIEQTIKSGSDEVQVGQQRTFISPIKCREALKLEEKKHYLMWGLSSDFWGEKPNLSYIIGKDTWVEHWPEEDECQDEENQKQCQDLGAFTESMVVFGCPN
Sequence of EAC3b (P01024 23-667 partner limits assumed): as the sequence (P01024 23-667 partner limits assumed) above

## r11bA: recombinant human CD11b A domain (Cys128 to Glu321), expressed as GST fusion protein, used as such or after thrombin cleavage
EAC3b
  binding of EAC3b to immobilized protein: not
[1]
  concentration range inhibiting NIF binding to leukocytes: low nM range
[1]; dose dependent
  effect of fluid-phase protein on biotinylated rNIF binding to human neutrophils: abolished
[1]; fluid-phase protein, read-out: half-maximal inhibition of biotinylated rNIF binding to human neutrophils
  IC50: ~1 nM
[2]
  binding of the A domain to iC3b: binds
[2]; 1 mM MnCl2, 1 mM MgCl2 or 1 mM MgCl2 and 0.15 mM CaCl2
  EAiC3b binding to rA-domain with MnCl2, MgCl2 or MgCl2 plus CaCl2: supported
[2]; 37° C. and 4° C., 1 mM MnCl2
  temperature dependency of EAiC3b binding to rA-domain: temperature-independent
[2]; 37° C., divalent cations
  direct binding of EAiC3b to immobilized protein or peptide: bound
[2]; CaCl2 alone (0.15-1 mM)
  EAiC3b binding to rA-domain with CaCl2 alone: ineffective
[2]; no divalent cations or EDTA
  EAiC3b binding to rA-domain, divalent cations omitted or EDTA included: No specific binding
gelatin
  binding of the A domain to gelatin: binds
[3]
  concentrations required for inhibition of iC3b binding to leukocytes: micromolar concentrations
